Measurements: patent publication US20200369754A1 (published 2020)

Molecular target: T1, Tau peptide A6940 (biotin (bound via biotin to a streptavidin biosensor in the Octet assay; position of the biotin not stated))
T1 peptide: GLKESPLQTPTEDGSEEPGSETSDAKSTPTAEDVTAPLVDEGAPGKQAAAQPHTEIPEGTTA
Experiment: ITC

B1: CBTAU-28.1 (S32R[VL];E35K[VL]) (antibody, V domains shown)
VH: QVQLQQSGAEVKKPGESLKISCEASGYSFTNYWIGWVRQMPGKGLEWMGIIYPGDSDTRYSPPFQGQVTITADRSITTAYLEWSSLKASDTAMYYCARVGRPSKGGWFDPWGQGTLVTVSS
VL: DIQMTQSPDSLAVSLGERATINCESSQTLLYRSNKKNYLAWYQQKPGQPPKLLISWASTPESGVPDRFSGSGSGTSFTLTISSLQAEDVAVYYCQQYYNSPYTFGQGTRLEIK
A Kd of 220 nM was found for B1 in this work.
